# Target: synthetic biotinylated and pegylated phospho-tau peptide RSGYSSPG(pS)PG(pT)PGSRSR-OH (human)
# Assay: MSD electrochemiluminescence competition on the biotinylated phospho-tau peptide (SEQ ID NO:39) coated on streptavidin plates; competitor: SULFO-TAG-labelled AT8
substance,measurement,value
"AT8 anti-tau antibody (ThermoScientific, Rockford, Ill.)",IC50 (read off the curve),40 nM
